Reference: publication PMC3460625 (PLoS Pathogens, 2012)

Target: T1, Nup98 (endogenous) (human (endogenous in HEK 293 and HeLa), UniProt P52948 1-880)
T1 construct: also called nucleoporin Nup98
T1 sequence (looked up): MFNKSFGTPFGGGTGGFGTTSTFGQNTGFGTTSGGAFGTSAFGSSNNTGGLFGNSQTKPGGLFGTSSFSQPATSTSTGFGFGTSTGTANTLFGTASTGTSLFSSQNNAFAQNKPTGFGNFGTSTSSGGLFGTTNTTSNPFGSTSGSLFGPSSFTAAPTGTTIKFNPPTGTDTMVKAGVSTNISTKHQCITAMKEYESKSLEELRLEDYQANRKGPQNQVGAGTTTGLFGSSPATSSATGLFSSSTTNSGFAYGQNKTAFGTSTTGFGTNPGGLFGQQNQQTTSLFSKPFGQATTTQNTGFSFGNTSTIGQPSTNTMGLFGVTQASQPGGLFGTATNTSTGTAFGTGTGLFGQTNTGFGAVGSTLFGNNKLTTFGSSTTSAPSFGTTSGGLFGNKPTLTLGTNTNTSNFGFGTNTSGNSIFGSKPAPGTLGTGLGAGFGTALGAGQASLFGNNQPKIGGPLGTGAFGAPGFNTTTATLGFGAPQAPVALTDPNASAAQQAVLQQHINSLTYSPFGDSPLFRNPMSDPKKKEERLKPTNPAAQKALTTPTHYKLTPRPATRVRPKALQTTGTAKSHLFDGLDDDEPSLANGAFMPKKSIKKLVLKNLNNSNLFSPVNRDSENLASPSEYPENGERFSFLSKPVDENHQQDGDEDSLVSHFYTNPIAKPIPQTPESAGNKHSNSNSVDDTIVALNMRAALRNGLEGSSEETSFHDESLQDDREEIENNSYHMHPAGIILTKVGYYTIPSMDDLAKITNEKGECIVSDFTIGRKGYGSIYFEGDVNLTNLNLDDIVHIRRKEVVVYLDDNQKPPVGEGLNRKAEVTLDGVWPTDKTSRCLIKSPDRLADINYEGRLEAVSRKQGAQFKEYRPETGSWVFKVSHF
Experiment: SEC + other: sucrose gradient sedimentation
Details: partners not purified

B1: Rae1 (endogenous) (natural protein, human (endogenous in HEK 293 and HeLa), UniProt P78406 1-368, looked up)
chain: MSLFGTTSGFGTSGTSMFGSATTDNHNPMKDIEVTSSPDDSIGCLSFSPPTLPGNFLIAGSWANDVRCWEVQDSGQTIPKAQQMHTGPVLDVCWSDDGSKVFTASCDKTAKMWDLSSNQAIQIAQHDAPVKTIHWIKAPNYSCVMTGSWDKTLKFWDTRSSNPMMVLQLPERCYCADVIYPMAVVATAERGLIVYQLENQPSEFRRIESPLKHQHRCVAIFKDKQNKPTGFALGSIEGRVAIHYINPPNPAKDNFTFKCHRSNGTNTSAPQDIYAVNGIAFHPVHGTLATVGSDGRFSFWDKDARTKLKTSEQLDQPISACCFNHNGNIFAYASSYDWSKGHEFYNPQKKNYIFLRNAAEELKPRNKK
notes: also called host Rae1; cellular Rae1
B1 was tested, and the “stoichiometry N” value was 1.
